Measured values taken from patent US20220389394A1.
Like-named read-outs stand apart in the source and are kept apart here.

Columns and labels:
[1] = biological target: biotinylated recombinant human FcγRI protein (Sino Biological) (human) (UniProt P12314); test: AlphaScreen competition; biotinylated FcγRI, competitor human IgG acceptor beads, 4PL fit
[2] = biological target: biotinylated recombinant human FcγRIIIa (Val 176 variant) protein (Sino Biological) (human) (UniProt P08637); test: AlphaScreen competition; biotinylated FcγRIIIa (Val 176 variant), competitor human IgG acceptor beads, 4PL fit
Chain of biotinylated recombinant human FcγRIIIa (Val 176 variant) protein (Sino Biological) (human) (P08637 other isoform, or with tags, fused parts or gaps mutant limits assumed): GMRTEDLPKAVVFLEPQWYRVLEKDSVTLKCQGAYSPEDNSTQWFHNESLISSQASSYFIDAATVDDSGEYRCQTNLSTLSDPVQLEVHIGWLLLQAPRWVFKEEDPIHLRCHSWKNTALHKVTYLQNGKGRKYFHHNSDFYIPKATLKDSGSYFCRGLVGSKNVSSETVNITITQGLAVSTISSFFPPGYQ

[3] = biological target: biotinylated recombinant human FcγRIIIa (Val 176 variant) protein (Sino Biological) (human) (UniProt P08637); test: as above; remark: listed apart in the source
[4] = biological target: recombinant human FcRn (human) (UniProt P55899); test: ELISA; recombinant human FcRn coated, serially diluted test article, anti-human (H+L)-HRP, 4PL fit
[5] = biological target: biotinylated recombinant human FcγRI protein (Sino Biological) (human) (UniProt P12314); test: AlphaScreen competition; biotinylated FcγRI, competitor human IgG acceptor beads, 4PL fit; remark: listed apart in the source
[6] = biological target: recombinant human C1q protein (Fitzgerald) (human) (UniProt P02745); test: ELISA; serially diluted test article immobilized, recombinant human C1q added, anti-C1q-HRP, 4PL fit
Chain of recombinant human C1q protein (Fitzgerald) (human) (P02745 23-245 limits assumed, chain 1 of 3): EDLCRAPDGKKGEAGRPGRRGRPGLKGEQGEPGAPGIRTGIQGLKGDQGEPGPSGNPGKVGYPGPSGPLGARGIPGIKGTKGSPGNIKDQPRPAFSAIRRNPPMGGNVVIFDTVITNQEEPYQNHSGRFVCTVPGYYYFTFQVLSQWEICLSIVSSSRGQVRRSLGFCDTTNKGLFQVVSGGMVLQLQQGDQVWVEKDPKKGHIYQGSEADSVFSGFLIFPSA
Chain of recombinant human C1q protein (Fitzgerald) (human) (P02746 28-253 limits assumed, chain 2 of 3, further chain): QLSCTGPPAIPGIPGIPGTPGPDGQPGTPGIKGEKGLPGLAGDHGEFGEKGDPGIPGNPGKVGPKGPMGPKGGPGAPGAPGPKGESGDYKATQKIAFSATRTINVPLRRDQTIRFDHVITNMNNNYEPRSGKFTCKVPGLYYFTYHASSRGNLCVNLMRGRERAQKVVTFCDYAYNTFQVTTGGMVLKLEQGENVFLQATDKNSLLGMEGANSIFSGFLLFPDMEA
Chain of recombinant human C1q protein (Fitzgerald) (human) (P02747 29-245 limits assumed, chain 3 of 3, further chain): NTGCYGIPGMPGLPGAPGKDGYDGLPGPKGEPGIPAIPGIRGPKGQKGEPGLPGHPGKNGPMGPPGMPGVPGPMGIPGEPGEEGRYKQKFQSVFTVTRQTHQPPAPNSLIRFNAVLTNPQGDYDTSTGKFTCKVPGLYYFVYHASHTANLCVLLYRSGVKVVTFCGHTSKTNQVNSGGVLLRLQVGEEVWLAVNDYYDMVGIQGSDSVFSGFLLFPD

[7] = biological target: recombinant human C1q protein (Fitzgerald) (human) (UniProt P02745); test: as above; remark: listed apart in the source
[8] = biological target: mouse FLT3 on the M1 cell line (mouse) (UniProt Q00342); test: cell-based or functional assay
Chain of mouse FLT3 on the M1 cell line (mouse) (Q00342 28-1000): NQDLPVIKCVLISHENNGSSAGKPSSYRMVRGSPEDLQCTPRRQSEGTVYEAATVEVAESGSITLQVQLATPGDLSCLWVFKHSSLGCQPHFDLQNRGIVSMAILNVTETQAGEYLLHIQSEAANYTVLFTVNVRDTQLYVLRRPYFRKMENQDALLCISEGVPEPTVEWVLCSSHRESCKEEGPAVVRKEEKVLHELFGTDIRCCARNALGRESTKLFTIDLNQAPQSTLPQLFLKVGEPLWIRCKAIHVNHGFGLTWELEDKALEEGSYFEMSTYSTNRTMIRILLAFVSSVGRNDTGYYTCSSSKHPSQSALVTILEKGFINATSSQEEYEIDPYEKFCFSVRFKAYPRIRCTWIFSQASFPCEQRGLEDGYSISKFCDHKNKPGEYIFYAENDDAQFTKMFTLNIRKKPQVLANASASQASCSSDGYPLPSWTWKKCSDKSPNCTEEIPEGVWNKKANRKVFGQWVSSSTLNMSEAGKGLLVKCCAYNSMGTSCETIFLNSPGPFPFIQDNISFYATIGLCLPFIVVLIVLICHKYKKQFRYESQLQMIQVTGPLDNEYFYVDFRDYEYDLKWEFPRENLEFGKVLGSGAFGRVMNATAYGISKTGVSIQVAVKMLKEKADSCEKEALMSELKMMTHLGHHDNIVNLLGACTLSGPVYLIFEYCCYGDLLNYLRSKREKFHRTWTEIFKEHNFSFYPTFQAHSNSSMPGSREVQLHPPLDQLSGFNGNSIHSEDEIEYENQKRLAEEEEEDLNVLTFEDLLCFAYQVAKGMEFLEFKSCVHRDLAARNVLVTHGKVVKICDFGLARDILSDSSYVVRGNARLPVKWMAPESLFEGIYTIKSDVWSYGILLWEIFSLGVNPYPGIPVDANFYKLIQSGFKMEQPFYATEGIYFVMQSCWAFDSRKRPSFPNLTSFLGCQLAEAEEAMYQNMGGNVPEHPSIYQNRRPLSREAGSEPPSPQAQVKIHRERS

[9] = biological target: human FLT3 on the AML5 cell line (human) (UniProt P36888); test: cell-based or functional assay
Chain of human FLT3 on the AML5 cell line (human) (P36888 27-993): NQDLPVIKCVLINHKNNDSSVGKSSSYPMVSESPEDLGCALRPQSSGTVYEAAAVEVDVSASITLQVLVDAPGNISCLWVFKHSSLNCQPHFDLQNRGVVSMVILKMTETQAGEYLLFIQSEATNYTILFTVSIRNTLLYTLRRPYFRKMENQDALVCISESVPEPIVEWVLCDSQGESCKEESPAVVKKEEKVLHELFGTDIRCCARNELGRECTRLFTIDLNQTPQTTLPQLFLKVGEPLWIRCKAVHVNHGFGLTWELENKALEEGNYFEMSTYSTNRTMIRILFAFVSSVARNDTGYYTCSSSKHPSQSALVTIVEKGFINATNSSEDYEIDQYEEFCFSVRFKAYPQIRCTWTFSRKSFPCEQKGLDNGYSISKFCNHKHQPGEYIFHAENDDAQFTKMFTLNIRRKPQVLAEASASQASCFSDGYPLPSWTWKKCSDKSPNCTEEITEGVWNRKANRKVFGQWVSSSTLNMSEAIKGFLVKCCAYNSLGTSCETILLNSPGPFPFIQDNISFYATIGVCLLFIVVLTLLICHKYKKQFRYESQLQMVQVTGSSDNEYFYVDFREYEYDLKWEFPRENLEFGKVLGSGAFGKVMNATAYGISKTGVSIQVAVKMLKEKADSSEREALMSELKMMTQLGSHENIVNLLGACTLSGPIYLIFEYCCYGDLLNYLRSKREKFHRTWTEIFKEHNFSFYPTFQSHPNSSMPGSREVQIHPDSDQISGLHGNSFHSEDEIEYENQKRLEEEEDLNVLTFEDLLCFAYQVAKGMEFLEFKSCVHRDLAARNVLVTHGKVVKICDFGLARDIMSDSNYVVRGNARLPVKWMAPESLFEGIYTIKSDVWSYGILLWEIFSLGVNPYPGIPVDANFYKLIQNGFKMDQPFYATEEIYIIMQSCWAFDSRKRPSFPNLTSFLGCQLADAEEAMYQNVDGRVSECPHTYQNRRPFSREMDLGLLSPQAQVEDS

Chain of biotinylated recombinant human FcγRI protein (Sino Biological) (human) (P12314 16-288 limits assumed): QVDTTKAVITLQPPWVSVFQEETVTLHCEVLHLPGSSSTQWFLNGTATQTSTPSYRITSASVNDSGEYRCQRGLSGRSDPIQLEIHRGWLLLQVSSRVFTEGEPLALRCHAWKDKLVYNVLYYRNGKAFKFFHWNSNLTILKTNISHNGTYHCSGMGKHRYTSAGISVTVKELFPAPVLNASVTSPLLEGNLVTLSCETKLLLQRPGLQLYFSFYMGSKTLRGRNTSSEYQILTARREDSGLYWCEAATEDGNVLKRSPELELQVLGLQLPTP

Row | EC50 [1] [nM] | EC50 [2] [nM] | EC50 [3] [nM] | EC50 [4] [nM] | EC50 [5] [nM] | EC50 [6] [nM] | EC50 [7] [nM] | EC50 (nM), M1 IL-6 release assay [8] [nM] | Emax (pg/ml), M1 IL-6 release assay [8] [pg/mL] | EC50 (nM), AML5 proliferation [9] [nM] | Substance
1 | 4.44 | 38.8 | 32.1 | 4.46 | 5.25 | – | – | – | – | – | human IgG1 isotype antibody
2 | 13.6 | 368 | 326 | 25.9 | 14.5 | 16.7 | 13.7 | – | – | – | human IgG4 isotype antibody
3 | – | – | – | – | – | – | – | 0.024 | 392 | 0.039 | recombinant human FLT3-ligand (from UniProt P49771 27-185)
4 | – | – | – | – | – | – | – | 0.117 | 517 | – | recombinant human FLT3-ligand human IgG1 fusion protein (Fc fusion)
